Values quoted from earlier work, collected in paper PMC5580472.
Read-outs that look alike come from different tables or passages of the source.

Tests used:
[1] = molecular target: TNF (Homo sapiens) (UniProt P01375)
[2] = molecular target: TNF (Homo sapiens) (UniProt P01375); remark: listed apart in the source

Sequence of TNF (Homo sapiens) (P01375 77-233): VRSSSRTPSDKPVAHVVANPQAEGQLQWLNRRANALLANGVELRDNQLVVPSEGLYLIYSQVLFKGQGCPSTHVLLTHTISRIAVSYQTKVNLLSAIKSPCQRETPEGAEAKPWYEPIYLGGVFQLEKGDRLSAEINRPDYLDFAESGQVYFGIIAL
Sequence of CrmB (P0DSV7 23-349): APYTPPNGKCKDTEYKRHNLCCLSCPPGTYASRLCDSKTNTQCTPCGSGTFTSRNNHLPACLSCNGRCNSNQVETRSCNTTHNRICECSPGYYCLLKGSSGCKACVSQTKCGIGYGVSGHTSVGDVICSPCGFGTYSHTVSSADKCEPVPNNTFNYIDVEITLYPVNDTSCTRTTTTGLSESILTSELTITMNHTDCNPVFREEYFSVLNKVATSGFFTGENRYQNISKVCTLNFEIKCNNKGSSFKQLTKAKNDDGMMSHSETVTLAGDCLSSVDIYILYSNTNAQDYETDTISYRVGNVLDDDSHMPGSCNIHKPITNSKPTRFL
Sequence of TNF receptor 2 (P20333 23-461): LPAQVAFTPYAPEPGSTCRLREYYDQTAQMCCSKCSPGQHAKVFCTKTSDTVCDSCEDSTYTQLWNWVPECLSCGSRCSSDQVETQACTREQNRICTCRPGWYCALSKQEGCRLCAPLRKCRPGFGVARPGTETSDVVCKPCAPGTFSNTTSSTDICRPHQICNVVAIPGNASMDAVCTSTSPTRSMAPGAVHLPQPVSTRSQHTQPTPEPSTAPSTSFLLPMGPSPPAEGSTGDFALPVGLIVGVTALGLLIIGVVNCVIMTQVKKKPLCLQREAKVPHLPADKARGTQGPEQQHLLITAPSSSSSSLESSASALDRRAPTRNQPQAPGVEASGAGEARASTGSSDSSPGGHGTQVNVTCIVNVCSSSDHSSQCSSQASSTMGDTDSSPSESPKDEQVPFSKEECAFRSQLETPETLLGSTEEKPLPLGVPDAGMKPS

Substance	Kd [1]	Kd [2]
CrmB (from UniProt P0DSV7)	0.28 nM	
TNF receptor 2 (from UniProt P20333)		0.3 nM
